Reference: paper PMC4078746

Target: Slit D2 (the Robo-binding domain of Slit) (Drosophila)
Experiment: SPR

Kd [nM]	Substance
235	Robo1 Ig1-5 fragment (Ig domain-containing portion of the Robo ectodomain) (domain or fragment)
1100	Robo2 Ig1-5 fragment (Ig domain-containing portion of the Robo2 ectodomain) (domain or fragment)
